Literature values as cited in article PMC2945288.

Molecular target: coat protein (procapsid) (Salmonella phage P22) (UniProt P26747)
Chain of UniProt P26747 (P26747 2-430): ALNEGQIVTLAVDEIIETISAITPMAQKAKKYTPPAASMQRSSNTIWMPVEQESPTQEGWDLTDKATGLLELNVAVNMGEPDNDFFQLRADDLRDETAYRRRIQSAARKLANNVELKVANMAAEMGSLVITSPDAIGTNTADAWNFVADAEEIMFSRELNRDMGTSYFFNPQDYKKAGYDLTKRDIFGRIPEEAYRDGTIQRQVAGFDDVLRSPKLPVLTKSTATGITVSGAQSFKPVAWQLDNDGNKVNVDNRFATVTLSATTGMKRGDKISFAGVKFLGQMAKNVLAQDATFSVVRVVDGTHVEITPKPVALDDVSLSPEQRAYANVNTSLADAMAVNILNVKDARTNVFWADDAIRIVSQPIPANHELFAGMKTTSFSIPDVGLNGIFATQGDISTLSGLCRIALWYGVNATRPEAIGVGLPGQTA

scaffolding protein (loosely bound) (from UniProt P26748)
Kd: 28 µM
